Experimental findings from article PMC6781449 (The Journal of Cell Biology, 2019) are described below.

This test concerns the target T1, GST-leupaxin FL (mouse, UniProt Q99N69 1-386).
T1 sequence (looked up): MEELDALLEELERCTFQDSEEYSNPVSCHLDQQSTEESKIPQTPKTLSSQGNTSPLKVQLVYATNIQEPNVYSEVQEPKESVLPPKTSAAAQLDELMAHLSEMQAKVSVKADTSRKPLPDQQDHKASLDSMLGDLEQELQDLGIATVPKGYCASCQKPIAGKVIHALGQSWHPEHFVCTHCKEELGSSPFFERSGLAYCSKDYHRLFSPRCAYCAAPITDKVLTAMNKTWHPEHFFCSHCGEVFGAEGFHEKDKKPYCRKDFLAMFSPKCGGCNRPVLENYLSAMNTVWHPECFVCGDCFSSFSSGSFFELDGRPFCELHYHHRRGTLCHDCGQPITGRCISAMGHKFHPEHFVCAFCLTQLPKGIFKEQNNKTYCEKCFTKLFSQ
As to the kind of experiment: pull-down.

B1: HisSUMO-tagged kindlin-3 F0 domain (domain or fragment, UniProt Q8K1B8 1-97, looked up)
chain: MAGMKTASGDYIDSSWELRVFVGEEDPEAQSVTLRVTGESHIGGVLLKIVEEINRKQDWSDHAIWWEQKRQWLLQTHWTLDKYGILADARLFFGPQH
In the case of B1, the binding result is given as “binds”.
